The values below come from article PMC4045939 (2014).

The assay deals with T1, RSV M2 protein peptide on H-2Kd (mouse).
T1 peptide: SYIGSINNI
The assay can be described thus: in vitro CTL assay; CB6F1 splenocyte targets loaded with graded M2 peptide, E:T ratio of 50; EC50 from a 4-parameter non-linear fit; full-length, on cells.

B1: TRBV13-1 (TCR)
alpha TRAV12-2*01 CDR3: CALRNNNNAPRF
beta TRBV13-1*02 CDR3: CASSDGGKEVFF
In the case of B1, the EC50 of peptide amounted to 0.0571 nM.

B2: TRBV13-2 (TCR)
alpha TRAV7-3*01 CDR3: CAVNSGYNKLTF
beta TRBV13-2*01 CDR3: CASGAGTGYAEQFF
Turning to B2, the EC50 of peptide was determined as 0.243 nM.
